Four molecules from article PMC5899157 (2018) can be followed below.

T1: mCXCL3 displayed on the surface of yeast as N-terminal fusion of Aga2p (mouse, UniProt Q6W5C0 32-100)
T1 chain: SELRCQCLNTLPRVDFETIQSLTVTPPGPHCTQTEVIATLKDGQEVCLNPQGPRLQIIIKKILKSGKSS

T2: mCXCL5 displayed on the surface of yeast as N-terminal fusion of Aga2p (mouse)
T2 chain: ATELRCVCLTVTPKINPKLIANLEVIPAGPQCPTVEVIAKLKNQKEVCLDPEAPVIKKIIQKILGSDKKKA

B1: mCXCL2 displayed on the surface of yeast as N-terminal fusion of Aga2p (ligand)
chain: AVVASELRCQCLKTLPRVDFKNIQSLSVTPPGPHCAQTEVIATLKGGQKVCLDPEAPLVQKIIQKILNKGKAN
B2: SA129, mouse serum albumin fused to the CK129 single-chain variable antibody fragment (scFv, V domains shown)
VH: EVQLVESGGGLVQPGGSLRLSCAASGFNISSYGSMHWVRQAPGKGLEWVASIYPYSSSTYYADSVKGRFTISADTSKNTAYLQMNSLRAEDTAVYYCARGYGPWYAYSYFALDYWGQGTLVTVSS
VL: DIQMTQSPSPLSASVGDRVTITCRASQYGGYVAWYQQKPGKAPKLLIYGASLLYSGVPSRFSGGRSGTDFTLTISSLQPEDFATYYCQRGHALITFGQGTKVEIE
B3: mCXCL1 displayed on the surface of yeast as N-terminal fusion of Aga2p (ligand)
chain: APIANELRCQCLQTMAGIHLKNIQSLKVLPSGPHCTQTEVIATLKNGREACLDPEAPLVQKIVQKMLKGVPK
B4: SA138, mouse serum albumin fused to the CK138 single-chain variable antibody fragment (scFv, V domains shown)
VH: EVQLVESDGGLVQPGGSLRLSCAASGFNLSYYGMHWVRQAPGKGLEWVAYIASYPGYTSYADSVKGRFTISADTSKNTAYLQMNSLRAEDTAVYYCARSGYSYSPYYSWFSAGMNYWGQGALVTVSS
VL: AIQMTRSPSSLSASVGDRVTITCRASQYHDGSAAWYQQKPGKAPKLLIYGASYLYSGVPSRFSGSRSGTDFTLTISSLQPEDFATYYCQQSSYSLITFGQGTKVEIK

Common to all, as to test: FACS
A general note: Flow cytometry measures light scatter and fluorescence of single cells or particles in a stream.

For experiment [1], the target named is SA157*, separate mouse serum albumin fusions of the VL and VH domains of CK157 mixed in equimolar amounts.
Experiment [2] deals with hCXCL2.
Experiment [3] deals with hCXCL3.
In experiment [4] the target is B3.
For experiment [5], the target named is wild-type hCXCL1 displayed on the surface of yeast as N-terminal fusion of Aga2p (human, UniProt P09341 35-107).
The target in experiment [6] is hCXCL6.
In experiment [7] the target is hCXCL8.
Experiment [8] deals with hCXCL5.
In experiment [9] the target is B1.
Experiment [10] has as its target T1, mCXCL3 displayed on the surface of ….
Experiment [11] deals with T2, mCXCL5 displayed on the surface of ….

Chain of wild-type hCXCL1 displayed on the surface of yeast as N-terminal fusion of Aga2p (P09341 35-107): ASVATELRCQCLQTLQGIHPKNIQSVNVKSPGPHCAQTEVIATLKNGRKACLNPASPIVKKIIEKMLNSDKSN

A word on the Kd: it is the concentration at which binding is half-saturated. Lower therefore signals a tighter complex. Turning to B1, in experiment [1], the Kd was found to be 591 nM.
B2: the Kd was 43.6 nM in experiment [2], 9.2 nM in experiment [3], 2.9 nM in experiment [4] and 2.7 nM in experiment [5].
Molecule B3 had a Kd in [1] of 666 nM.
B4: the Kd in experiment [6] was found to be 5000 nM; in [2], 1590 nM; in experiment [7] it was 14.7 nM; in experiment [3], 836 nM; in experiment [8] it was 33.7 nM; in experiment [4], 29.4 nM. The figures for the Kd in experiment [9], in [10] and in [11] were 16.7 nM, 31.1 nM and 357 nM, respectively.
